# Results from patent publication WO2007076336A1.
# Target: Human CGRP (Example 4, isoform not stated) (human) (UniProt P80511)
# Test: cell-based or functional assay
# Sequence of UniProt P80511 (P80511 2-92 limits assumed): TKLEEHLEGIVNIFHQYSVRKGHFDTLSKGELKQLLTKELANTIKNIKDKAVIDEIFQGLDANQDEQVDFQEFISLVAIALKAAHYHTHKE
substance,measurement,value
"monoclonal antibody C7113 (Sigma-Aldrich, St. Louis, MO)","IC50, inhibition of CGRP-induced cAMP in SK-N-MC cells (HTRF)",10.1 nM
